In assay [1] the target is recombinant mature human GDF-15 protein (as expressed in Baculovirus-transfected HighFive insect cells) (human) (UniProt Q99988). The assay is described as follows: SPR (Biorad ProteOn XPR36, GLC chip), GDF-15 immobilised, antibody as analyte, 1:1 Langmuir fit, 25 C.
Assay [2] addresses recombinant mature human GDF-15 protein derived from expression in E. coli (human) (UniProt Q99988). The assay is described as follows: SPR (Biorad ProteOn XPR36), E. coli GDF-15 immobilised, antibody as analyte.
For assay [3], the target named is recombinant mature human GDF-15 protein (as expressed in Baculovirus-transfected HighFive insect cells) (human) (UniProt Q99988). The experiment in a line: SPR (Biorad ProteOn XPR36), KD=koff/kon.

The text below walks through data of patent US20230408521A1.

pKd: −log10 of the molar value.

In general, koff refers to the first-order rate constant of dissociation. One may read the kon as the rate constant with which the complex forms. In general, pKd refers to the Kd on a negative log10 scale, so that one unit is a factor of ten. Consider “monoclonal anti-human GDF-15 mAb-B1-23 (antibody)”, for which, in assay [1], the koff was 0.00043 s⁻¹ and the kon worked out at 540000 M⁻¹ s⁻¹. Also, in assay [2], the deviation of rate constants against GDF-15 derived from insect cells came to 45% and the fold difference of affinity values against GDF-15 derived from insect cells is below 2 fold. The negative logarithm of the Kd (pKd) in assay [3] is 9.10.
